Assay results: publication PMC4323281 (Nature, 2014)

Target: the molecule itself
Assay: AUC

B1: Archaeoglobus fulgidus alanyl-tRNA synthetase (AlaRS), wild-type, full-length (enzyme, UniProt O28029 1-906, looked up)
chain: MTLDEEYLDITFLTENGFVRKRCPKCGKHFWTADPEREICGDPPCESYSFIGNPVFKKPFELDEMREYYLNFFERRGHGRIERYPVVARWRTDIYLTIASIADFQPFVTSGVAPPPANPLTISQPCIRLDDLDSVGRTGRHLTLFEMMAHHAFNYPGKEIYWKNETVAYCTELLNELGVKKEDIVYKEEPWAGGGNAGPCLEAIVGGLEVATLVFMNLEEHPEGDIEIKGARYRKMDNYIVDTGYGLERFVWASKGTPTVYDAIFPEVVDTIIDNSNVSFNREDERVRRIVAESSKLAGIMGELRGERLNQLRKSVADTVGVSVEELEGIVVPLEKVYSLADHTRCILFMLGDGLVPSNAGAGYLARLMIRRSLRLAEELELGLDLYDLVEMHKKILGFEFDVPLSTVQEILELEKERYRTTVSKGTRLVERLVERKKKLEKDDLIELYDSHGIPVELAVGIAAEKGAEVEMPKDIYAELAKRHSKAEKVQEKKITLQNEYPATEKLYYDDPTLLEFEAEVIGVEGDFVILNRSAFYPESGGQDNDVGYLIANGGKFEVVDVLEADGVVLHVVKGAKPEVGTKVKGVIDSDVRWRHMRHHSATHVLLYSLQKVLGNHVWQAGARKEFSKARLDVTHFRRPSEEEIKEIEMLANREILANKPIKWEWMDRIEAERKFGFRLYQGGVPPGRKIRVVQVGDDVQACGGTHCRSTGEIGMLKILKVESIQDGVIRFEFAAGEAAIEAVEEMERLLREASSILRVEPAKLPKTVERFFEEWKDQRKEIERLKSVIADLWADILMERAEEFDSMKVVAEVVDADMQALQKLAERLAEKGAVGCLMAKGEGKVFVVTFSGQKYDARELLREIGRVAKGSGGGRKDVAQGAVQQLLDREEMLDVIFRFLSEHEG
stoichiometry N: 2
